# Changes are numbered by the printed parent chain. Names may count otherwise.
# T1: EsCas13d, nuclease-dead (Eubacterium siraeum, UniProt B0MS50, R295A;H300A;R849A;H854A)
# T1 sequence: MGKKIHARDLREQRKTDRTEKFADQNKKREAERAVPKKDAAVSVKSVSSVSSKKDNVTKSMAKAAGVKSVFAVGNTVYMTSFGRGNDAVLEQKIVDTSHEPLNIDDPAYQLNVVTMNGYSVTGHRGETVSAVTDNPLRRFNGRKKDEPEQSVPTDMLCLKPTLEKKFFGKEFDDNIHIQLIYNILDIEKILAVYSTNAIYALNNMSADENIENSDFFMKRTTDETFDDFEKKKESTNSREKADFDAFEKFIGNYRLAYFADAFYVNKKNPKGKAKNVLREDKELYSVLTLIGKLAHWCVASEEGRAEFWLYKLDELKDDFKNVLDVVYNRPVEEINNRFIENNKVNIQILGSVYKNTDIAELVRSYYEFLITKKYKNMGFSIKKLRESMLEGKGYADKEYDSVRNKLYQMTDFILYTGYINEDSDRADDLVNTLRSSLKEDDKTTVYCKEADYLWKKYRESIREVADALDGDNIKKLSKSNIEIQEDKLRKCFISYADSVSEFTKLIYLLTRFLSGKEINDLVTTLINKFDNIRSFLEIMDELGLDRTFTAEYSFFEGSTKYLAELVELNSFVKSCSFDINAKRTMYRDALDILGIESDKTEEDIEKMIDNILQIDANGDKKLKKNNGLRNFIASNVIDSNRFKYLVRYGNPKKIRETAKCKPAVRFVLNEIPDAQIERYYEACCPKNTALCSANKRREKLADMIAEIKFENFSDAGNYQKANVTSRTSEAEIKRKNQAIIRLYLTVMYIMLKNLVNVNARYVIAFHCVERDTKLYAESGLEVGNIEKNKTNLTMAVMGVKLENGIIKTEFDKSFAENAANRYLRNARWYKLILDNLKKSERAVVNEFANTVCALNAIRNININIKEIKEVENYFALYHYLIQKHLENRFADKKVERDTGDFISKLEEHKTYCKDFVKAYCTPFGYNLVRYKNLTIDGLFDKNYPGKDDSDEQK
# B1: target 1 insC 3' of 13,insC 3' of 5 (mixed)
# RNA 1: CACCCGUGCAAAAAUGCAGGGGUCUAAAACUGAGCGGAUAACCUCUCUAUGG
# RNA 2: GGGAAUGGAUCCACAUCUACGAAUUCGUACCAUAGAGAGCGUUAUCCGCCUCACCGAGAUCGGAAGAGCACACGU
# B2: target 1 G17U,U19G (mixed)
# RNA 1: B1 RNA 1
# RNA 2: GGGAAUGGAUCCACAUCUACGAAUUCGUACCAGAUAGAGGUUAUCCGCUCACCGAGAUCGGAAGAGCACACGU
# B3: target 1 A20C (mixed)
# RNA 1: B1 RNA 1
# RNA 2: B2 RNA 2 with A32C, G33U, U35G
# B4: target 1 C7A,C22G (mixed)
# RNA 1: B1 RNA 1
# RNA 2: B2 RNA 2 with C30G, G33U, U35G, C45A
# B5: target 1 A1U,C4A (mixed)
# RNA 1: B1 RNA 1
# RNA 2: B2 RNA 2 with G33U, U35G, C48A, A51U
# B6: target 1 C4G,A9G (mixed)
# RNA 1: B1 RNA 1
# RNA 2: B2 RNA 2 with G33U, U35G, A43G, C48G
# B7: target 1 insC 3' of 10,insG 3' of 9 (mixed)
# RNA 1: B1 RNA 1
# RNA 2: B1 RNA 2 with C40G, G41U, U43C, U45G, C46U, G48C, C49G
# B8: target 1 insG 3' of 3,insG 3' of 2 (mixed)
# RNA 1: B1 RNA 1
# RNA 2: GGGAAUGGAUCCACAUCUACGAAUUCGUACCAUAGAGAGGUUAUCCGCUGCGACCGAGAUCGGAAGAGCACACGU
# B9: target 1 insC 3' of 14,insG 3' of 14 (mixed)
# RNA 1: B1 RNA 1
# RNA 2: B1 RNA 2 with G39C, C40G, U42G, A44U, U45A, C46U, G48C, C49G
# B10: target 1 insG 3' of 18,insA 3' of 12 (mixed)
# RNA 1: B1 RNA 1
# RNA 2: GGGAAUGGAUCCACAUCUACGAAUUCGUACCAUAGGAGAGGAUUAUCCGCUCACCGAGAUCGGAAGAGCACACGU
# B11: target 1 insC 3' of 18,insU 3' of 5 (mixed)
# RNA 1: B1 RNA 1
# RNA 2: B1 RNA 2 with G35C, A36G, G37A, A38G, G39A, C40G, C49U
# B12: target 1 insU 3' of 20,insC 3' of 18 (mixed)
# RNA 1: B1 RNA 1
# RNA 2: B10 RNA 2 with A34U, G35A, G36C, A37G, G38A, A39G, G40A, A42G
# B13: target 1 insG 3' of 8,insC 3' of 3 (mixed)
# RNA 1: B1 RNA 1
# RNA 2: B8 RNA 2 with C45G, G47C, C48G, U49C, G50U, G52C
# B14: target 1 U10A,U11A (mixed)
# RNA 1: B1 RNA 1
# RNA 2: B2 RNA 2 with G33U, U35G, U41A, U42A
# B15: target 1 insC 3' of 15,insA 3' of 10 (mixed)
# RNA 1: B1 RNA 1
# RNA 2: B10 RNA 2 with G36A, A37G, G38C, A42U, U44A
# B16: target 1 complement block 1-7 (mixed)
# RNA 1: B1 RNA 1
# RNA 2: B2 RNA 2 with G33U, U35G, C45G, C46G, G47C, C48G, U49A, C50G, A51U
# B17: target 1 insC 3' of 14,insG 3' of 4 (mixed)
# RNA 1: B1 RNA 1
# RNA 2: B1 RNA 2 with G39C, C40G, C50G
# B18: target 1 U3G,G5U (mixed)
# RNA 1: B1 RNA 1
# RNA 2: B2 RNA 2 with G33U, U35G, G47U, U49G
# B19: target 1 U3G,A20U (mixed)
# RNA 1: B1 RNA 1
# RNA 2: B2 RNA 2 with A32U, G33U, U35G, U49G
# B20: target 1 C2G,U3C (mixed)
# RNA 1: B1 RNA 1
# RNA 2: B2 RNA 2 with G33U, U35G, U49C, C50G
# B21: target 1 insU 3' of 18,insC 3' of 15 (mixed)
# RNA 1: B1 RNA 1
# RNA 2: B10 RNA 2 with G35U, A39C, G40A, A42G
# B22: target 1 complement block 1-9 (mixed)
# RNA 1: B1 RNA 1
# RNA 2: GGGAAUGGAUCCACAUCUACGAAUUCGUACCAUAGAGAGGUUUAGGCGAGUCCGAGAUCGGAAGAGCACACGU
# B23: target 1 C6G,G17A (mixed)
# RNA 1: B1 RNA 1
# RNA 2: B2 RNA 2 with G33U, U35A, C46G
# B24: target 1 C2A,G13U (mixed)
# RNA 1: B1 RNA 1
# RNA 2: B2 RNA 2 with G33U, U35G, G39U, C50A
# B25: target 1 insC 3' of 16,insC 3' of 1 (mixed)
# RNA 1: B1 RNA 1
# RNA 2: B1 RNA 2 with G37C, A38G, G39A, C40G, C50U, U51C, C52A, A53C
# B26: target 1 insU 3' of 17,insC 3' of 16 (mixed)
# RNA 1: B1 RNA 1
# RNA 2: B10 RNA 2 with G36U, G38C, A39G, G40A, A42G
# B27: target 1 C4G,C21A (mixed)
# RNA 1: B1 RNA 1
# RNA 2: B2 RNA 2 with C31A, G33U, U35G, C48G
# B28: target 1 insA 3' of 11,insU 3' of 1 (mixed)
# RNA 1: B1 RNA 1
# RNA 2: B1 RNA 2 with C40G, G41U, U42A, C50U, U51C, C52A, A53U
# B29: target 1 G5C,G17A (mixed)
# RNA 1: B1 RNA 1
# RNA 2: B2 RNA 2 with G33U, U35A, G47C
# B30: target 1 U3A,G5C (mixed)
# RNA 1: B1 RNA 1
# RNA 2: B2 RNA 2 with G33U, U35G, G47C, U49A
# B31: target 1 insC 3' of 10,insC 3' of 8 (mixed)
# RNA 1: B1 RNA 1
# RNA 2: B1 RNA 2 with C40G, G41U, U43C, G48C, C49G
# B32: target 1 U11A,G13U (mixed)
# RNA 1: B1 RNA 1
# RNA 2: B2 RNA 2 with G33U, U35G, G39U, U41A
# B33: target 1 C6A,G17A (mixed)
# RNA 1: B1 RNA 1
# RNA 2: B2 RNA 2 with G33U, U35A, C46A
# B34: target 1 A1U,C2A (mixed)
# RNA 1: B1 RNA 1
# RNA 2: B2 RNA 2 with G33U, U35G, C50A, A51U
# Biological target: T1, EsCas13d, nuclease-dead
# Experiment: crRNA (strand 1, pre-loaded); Mg2+; 40 mM Tris-HCl pH 7.5, 150 mM NaCl, 6 mM MgCl2, 1 mM DTT, 0.1% Tween-20, 0.2 mg/ml BSA; 25 C; 10 min per concentration, then washed
# Details: tags: His6-TwinStrep-SUMO cleaved; N-terminal SNAP kept (SNAP-Surface 488); label: 3' end held by stalled T7 RNA polymerase
row,Binder,Kd [nM]
1,B1,16.9 ± 1.2
2,B2,80 ± 40
3,B3,34.2 ± 2.5
4,B4,41 ± 6
5,B5,5.92 ± 0.27
6,B6,3.9 ± 0.34
7,B7,17.1 ± 1
8,B8,6.2 ± 0.4
9,B9,50 ± 6
10,B10,73 ± 32
11,B11,84 ± 31
12,B12,36 ± 4
13,B13,12.7 ± 0.6
14,B14,11.8 ± 0.4
15,B15,65 ± 11
16,B16,23.9 ± 2.4
17,B17,21 ± 1.2

row,Binder,Kd [nM]
1,B18,14.1 ± 0.5
2,B19,38 ± 4
3,B20,8.6 ± 0.7
4,B21,49 ± 5
5,B22,9.5 ± 0.7
6,B23,48 ± 6
7,B24,49 ± 8
8,B25,77 ± 32
9,B26,91 ± 20
10,B27,25.5 ± 2.8
11,B28,19 ± 1.3
12,B29,79 ± 28
13,B30,16.9 ± 0.9
14,B31,63 ± 13
15,B32,34.2 ± 2.2
16,B33,37.8 ± 2.4
17,B34,8.4 ± 0.7

# Source: paper PMC10786891, “Massively parallel profiling of RNA-targeting CRISPR-Cas13d”
